# In paper PMC2532728 (Nucleic Acids Research, 2008):
# Target: the molecule itself
# Assay: SEC
protein,measurement,value
"recombinant ZmWHY1 (full-length mature ZmWHY1, lacking the transit peptide) (natural protein) ASSRKAAAVPACPVASPRHSDYFDPRAPPPPRGDGGYGRPPNGAQDGRVFTSYSIYKGKAALSFDPRPPLFVPLDSGAYKVAKEGFVLLQFAPAVATRQYDWTRKQVFSLSVWEIGTLLTLGPTDSCEFFHDPFKGRSEEGKVRKVLKIEPTPDGNGRFFNLSVQNRLINVDESIYIPITKGEFAVIVSTFNYIIPHLMGWSTFVSSIKPEESRPYSRPQSTSEYEWRR",stoichiometry N,4
